{
  "source": "the DeepSol protein solubility set",
  "data": [
    {"assay": "soluble on expression in E. coli; label from the status in PepcDB or PDB records", "values": [
      {"sequence": "MENVNRNHKNSVFSSLFSTPDVLRELYSAIEGIPIPPDIPIDINTLTDILYKGQINDVSFVINNRLVVLIEHQSTINANIPLRLLMYIARVYEKIINRKKLYQSKLEKIPLPEFIVLYNGEKEYSDFQELKLSDAFKDIDGLKLSGIEKIPLELIVQVYNINHGHNPEILKRSETLDSYSIFINKIREYQKEKDSLEKAARSAIIYCIKNNILKDYLEAHASEVLNMLLTEWNQDEAVEVAREEGREEGREEGHENGLKEGKMIIAKNLLEKGSTPEFVREITGLSPEEIEEIELND", "soluble on expression in E. coli": "soluble"},
      {"sequence": "MEPKLSKDTIIAAAFSLLEKSPTLEQLSMRKVAKQLGVQAPAIYWYFKNKQALLQSMAEAIEEHFQEPALCGEWYSDLLAFMENYYDLYQQFPCAVAIEIQTVPAYPQRLRHLNQMMGILREAGFSPEMTHLAVTSLQHLLFGMIMDATEEKQLVSQVLNGDDYLKEQVLHMKQYVSDNELTYMEESIQFRHSIHQKSAFIQAVKTYLDGLQADNTSSSK", "soluble on expression in E. coli": "soluble"},
      {"sequence": "MEPVRIGGPVGAGKTMLVEKLTRAMHRRFSIAVITNDIYTKEDAQFLIKHSVLPEDRIIGVETGGCPHTAIREDASMNFAAIDELKRRHPDVELILIESGGDNLAATFSPELVDFSIYVIDVAQGEKIPRKGGQGMIKSDLLVINKIDLAPYVGASLEVMERDAKAVRGAKPVIFTNLKEEIGLFDVVDWIEKQVLLAGLEE", "soluble on expression in E. coli": "not soluble"},
      {"sequence": "MEQHPIKINKVQIRNLQIEDYAQLSQSFTRVYSDGSDVFWTHAQIKKLISIFPEGQIVTVVDDKIVGCALSIILDYDKVKNDHTYAQVTGKETFNTHNPEGNILYGIEVFIHPGYRGLRLARRMYEYRKELCETLNLKAIMFGGRIPNYHKYADKMRPKEYIARVRQREIYDPVLTFQLSNDFHVRKVMTNYLPNDEESKHYACLLQWDNIYYQPPTQEYINPKTTVRVGLVQWQMRSYKTLDDLFEQVEFFVDAVSDYKSDFVLFPEYFNAPLMSKFNDKGESQAIRGLAKYTDEIRDRFINLAISYNINIITGSMPYVKEDGLLYNVGFLCRRDGTYEMYEKMHVTPDEIKSWGLSGGKLLQTFDTDCAKVGVLICYDVEFPELSRLMADQGMQILFVPFLTDTQNAYSRVRVCAQARAIENECFVVIAGCVGNLPRVHNMDIQYAQSGVFTPCDFAFPTDGKRAEATPNTEMILVSDVDLDLLNALHTYGSVRNLKDRRNDVYEVRFKK", "soluble on expression in E. coli": "not soluble"},
      {"sequence": "MEQIGAALQQTLEPDAAIRKRGEEALRSLQSNPGYIIQILQLVVNEQQQIAPQIRIAAAVALKNFVKRNWGPAPEVEMGQEDEEQFRSMLLEAMFNTKSNVQEILSNALYLIAQRDFPEKWPDLVPYLSKFLNGADLNHLVASLASMEQIFRKFRFESKSAELWKELKKCLLSTQEPLTLLLRNMMEVGQRKDQLGADEIAQWLRVLLLIAKVYHSLCSQEIPEYFEDHLKDWMPHFLHLVQIDAPTQTSNSGEPTTLDELKHEICEIFTLYSQRYEEEISEFVPDIILAVWNLLKSTGPDTRYDTMVCAALEFLSMVSQRQYYEGHFTGEGVLKTLAENVCVQNLLLRQQDMELFEDEPLDYMKRDIEGTDVGTRRRGAIDLARGLCRRFEAQMLPCLGEIVQNLLGSGDWIKIDIVYSLITAIAVKTETAKSGVTATNPLVDINDFFITQVATHLNADVNQTPILKADALKFAVTFRKQLAPEHLMTAIKSADALLSSNTPILHKYAAYAIEKILLADSNKIFSAQNLPVSSILQNLVTAFDKDAKAQNSPYLIKAILRIIVILDDDTIRHADAIAVKLAQLVESATKNPADSVHTHFLFETICVLITKTRTIGASLDAQLLPLIEVIFREDLEDLIPYALQITGVLVSSCIARNSSIDQFSPFLPFLLSERLWARSANVPAALSVLEVILSVNAQRVVSENSGLILSHLARLLGSKTLDQYGFQLAATILPSIEHFEGSAMTFVLNTMFRRVQSSKTPKFMKLFIVFLCRFTIARSAQDLVQSCENIQTGMFGMLIEKVVCIDLPGLKQTTTGPEKRIIAIGMGNLLADVTQQLVGQYGILSYEVAMLLEAASASDRAVLSPEEEQASMYNAEGEFVNPFCRLSYAPKQPPVAANIANHKAYFAQAVLVRGPGNCPETLRSVPPEIVTYLQSIQQ", "soluble on expression in E. coli": "not soluble"},
      {"sequence": "MEQLKCHVKQYAWGKYGEESEVARLFADGHESFQIDQKTPYAELWMGTHPDGPAQLKKCSTKLSTYLAKNPSPLTNNNSAKNIHLPFIMKVMSIRTTLSLQVHPTKEQARRLHEKDPIHYPDRNHKPELAYALTRFELLCGFRPAREILQNLQTFPSFRLLFGGDTYAKPLEDCIQQMKDLNSVDQKSTEFKDSRKYLEDCFRFMMVPERNDVHDLIAKLLSELDNGLRGAVEEVTVGVIRKMSVDFPNDIGIFSPLFLNHMILEPGQCCYYAAEELHAYLSGECVECVGCSNNTIRAAMTPKYIDRDALCSVLNYKMTEQKDYLVPENKLTECVDMYAPDCKDFQLHRIRVGTHQTVEEMMIPTLDCASIFVVVSGKGTLEEATIDNQLIGQYEVKRGDIFYIPPKHNIRFSSCSEPLEGYRTFSYEMGPDHDTRLVTPVQNAVPTITEKMFKLDADMEEAITAVV", "soluble on expression in E. coli": "not soluble"},
      {"sequence": "MEQQKKTTIVLFSGDYDKAMAAYIIANGAAAYDQEVTIFHTFWGLNALRKDEYVNVKKTFIEKVFGRMMPRGADKMGLSKMNFAGMGPKMIKGIMKKHNTMPLPDLIDLAKEQGIKLVACQMTVDLLGLKEEEIMEGVEFAGVGAYLADASDGNVNLFI", "soluble on expression in E. coli": "not soluble"},
      {"sequence": "MEQRTAEWFQARLGKVTASNIYNVLSKTAKGTPTSKYEEYKIKLMTERLTEEISQSYLTPAMQWGIEHEEDALKEYAIIYDTEVIKCGFIQHPTIEMAGASPDGLIGEEGLVEVKCPHSTKHLRFYMDGTIKPEYKAQMQFQMACTGRQWCDFVSYDPHFVGRSLRLRMKIKRIHRDEKQIEQINQAVEIFLEEIEQEMKQILTQAA", "soluble on expression in E. coli": "not soluble"},
      {"sequence": "MEQSVANLVDMRDVSFTRGNRCIFDNISLTVPRGKITAIMGPSGIGKTTLLRLIGGQIAPDHGEILFDGENIPAMSRSRLYTVRKRMSMLFQSGALFTDMNVFDNVAYPLREHTQLPAPLLHSTVMMKLEAVGLRGAAKLMPSELSGGMARRAALARAIALEPDLIMFDEPFVGQDPITMGVLVKLISELNSALGVTCVVVSHDVPEVLSIADHAWILADKKIVAHGSAQALQANPDPRVRQFLDGIADGPVPFRYPAGDYHADLLPGS", "soluble on expression in E. coli": "not soluble"},
      {"sequence": "MEREKLELPENGKKLLLHSCCAPCSGEVMEAIVASGIDFSIFFYNPNIHPRKEYDLRKDENIRFAEKHGIPFIDADYDMDDWFKRAKGMEMEPERGIRCTMCFDMRFERTALYAYENGFDVISSSLGISRWKNMDQINDSGVRAAAQYPGITYWTYNWRKKGGSARMLEISKREKFYMQEYCGCAYSLRDTNKWRVEHGREKIRIGEKYYGDVTE", "soluble on expression in E. coli": "not soluble"},
      {"sequence": "MERITVTLGERSYPITIAAGLFNEPASFLPLKSGDQVMLVTNETLAPLYLDKVRGVLERAGVNVDSVILPDGEQYKSLTVLDTVFTALLKKPHGRDTTLVALGGGVIGDLTGFAAASYQRGVRFIQVPTTLLSQVDSSVGGKTAVNHPLGKNMIGAFYQPASVVVDLDCLKTLPARELTSGLAEVIKYGIILDADFFTWLEGNLDALLRLDGPAMAYCIRRCCELKAEVVAADEREAGLRALLNLGHTFGHAIEAEMGYGNWLHGEAVAAGIVMAARASERLGQFSSADTQRIIALLERAGLPVNGPCEMSAQDYLPHMLRDKKVLAGELRLVLPLAIGKSEVRGGVSHEVVLSAIADCQQA", "soluble on expression in E. coli": "not soluble"},
      {"sequence": "MERSRDFLLQAKRDLEQARLSLREGFFEWAAFAAQQAAEKAVKAVFQRLGAVAWGHSVAGLLEELAQKLPVPEALLDAASELDKAYIPSRYPDALPEGAPFQRYRRGEAERLLGHAEAVYAYCEGVLSQMDEGGAPPPHRGGA", "soluble on expression in E. coli": "soluble"},
      {"sequence": "MERVNVVGAGLAGSEAAWTLLRLGVPVRLFEMRPKRMTPAHGTDRFAEIVCSNSLGGEGETNAKGLLQAEMRRAGSLVMEAADLARVPAGGALAVDREEFSGYITERLTGHPLLEVVREEVREIPPGITVLATGPLTSEALAEALKRRFGDHFLAYYDAASPIVLYESIDLTKCFRAGRYGQSADYLNCPMTEEEYRRFHQALLEAQRHTPHDWEKLEFFEACVPVEELARRGYQTLLFGPMKPVGLVDPRTGKEPFAVVQLRQEDKAGRMWSLVGFQTGLKWPEQKRLIQMIPGLENAEIVRYGVMHRNTYLNAPRLLGETLEFREAEGLYAAGVLAGVEGYLESAATGFLAGLNAARKALGLPPVAPPEESMLGGLVRYLATANPEGFQPMYANWGLVPPVEGRMGKKEKRQAMYRRGLEAFSAWLSGLNPPLPRPEAALV", "soluble on expression in E. coli": "soluble"},
      {"sequence": "MERVTRKVQVTGGSTYIISLPPEWIKRNNIGKGSEVSVIDQGSDLVVTAPENSEPEITKKITLPGSYTGKPLQRLLTSTYISGFDTLVVVSKDKMTAEMRDDIKRFAKVVMGIEVIEETSRSIVLQNVLNASTFPLQKAIRRMSLNVSTMIEDTIKAIQDEDDDLVENIILRDDEVDRYQWYIYREVKIRCRDDRSNVYILVLSRILERIADHAVNICQAIKNRKGIKGKEKMVENLAYSKDVYNQAMETFYSKNFGEIDGIINRKSEITSRKYELLKILSYDSVLSSVAEEISRIGLYGTDIAELAMDLIMSDKDEFSV", "soluble on expression in E. coli": "not soluble"},
      {"sequence": "MERYPPIADHGLVGDLQTAALVSSQGVIDWFAAPRFDSPSIFASLLDHDGGGHFLLAPEHPEGTWRQLYYPDTGVVVTRFMSPDGVGEIIDYMPVLPGPTASDRHSLVRIVRSVRGTVRFRLVCRPRFDYLEHHHHHH", "soluble on expression in E. coli": "not soluble"},
      {"sequence": "MESAIKKRRLEDSKLLGDLWQRLSHSRKKLMEIFHIILNQICLLPILESSCDNIHGFIEEFLQIFSSLLQEKRFLRDYDALFPVAEDISLLQQASSVLDETRTAYILQAVESAWEGVDRRKATDAKDPSVIEEPNGEPNGVTVTAEAVSQASSHPENSEEEECMGAAAAVGPAMCGVELDSLISQVKDLLPDLGEGFILACLEYYHYDPEQVINNILEERLAPTLSQLDRNLDREMNPDPTPLLTSRHNVFQNDEFDVFSRDSVDLSRVHKGKSTRKEENTRSLLNDKRAVAAQRQCYEQYSVVVEEVPLQPGESLPYHSVYYEDEYDDTYDGNQVGANDADSDDELISRRPFTIPQVLRTKVPREGQEEDDDDEEDDADEEAPKPDHFVQDPAVLREKAEARRMAFLAKKGYRHDSSTAVAGSPRGHGQSRETTQERRKKEANKATRANHNRRTMADRKRSKGMIPS", "soluble on expression in E. coli": "soluble"},
      {"sequence": "MESELIFHEGGCHCGKIKWRVKAARSVIAWSCNCSDCSMRGNVHFIVPSSNFELLDDSKDFITTYTFGTHTAKHTFCKVCGITSFYIPRSNPDGVAVTVKCVKSGTLAHIEVKSYDGQNWEMSHKKTGIASFSKE", "soluble on expression in E. coli": "soluble"},
      {"sequence": "MESIGLVIVSHSKHIAEGVVELISKVAKDVPITYVRGTEGGGIGTSFEQVDRVVSENPADTLLAFFDLGSAKMNLKMVTDFSDKSIIINRVPIVEGAYNAAALLQAGAELSVIQTQLAELEINK", "soluble on expression in E. coli": "not soluble"},
      {"sequence": "MESYIQNLFAERIGGKSFGKEDVIYKFEKIKRAKQAAKLKYPDMELIDMGVGEPDEMADESVVEVLCEEAKKHVNRGYSDNGVQALKDEIPIYLEKIFGVKDLDPVNEVVHSIGSKPALAYITSVFINPGDVTLMTVPGYPVTATHTKWYGGSVETLPLLEKNNFLPELDAISKEVRENAKILYLNYPNNPTGAQATKKFYKEAVDFAFENDLIVIQDAAYAALTYGDKPLSFLSVKDAKEVGVEIHSFSKAYNMTGWRLAFVAGNELIVRGFAAVKDNYDSGQFIPIQKAGIHCLRHPEITEKTRAKYERRLSKMVKILKEAGFNAKMPGGTFYLYVKAPIGTKDGAKFANAEEFSQFMIKEKLISTVPWDDAGNFVRMAACFEAFKDGEISIEEEDRILNEVKRRLTEVEFVFE", "soluble on expression in E. coli": "not soluble"},
      {"sequence": "METADTYTIVLTERNMGYAGQFYMVSKEGIGEAPISVGSGYGNPLMFSIKAVGSVTKGIMNDPYGEIGIRGPYGNVWPWKSYEHVVAIAGGIGIPPIKALIEDMQGHTSLDKLTVLYGARSPSDIVYRSEIETWKEEMDFRITVDKGDENWRGHVGVVTTLVPEIKEYNHGAAFVIGPPVMMKFSVKSLLDAGFAEDNIYLSLERRMECGIGVCGHCNIGRWYACEDGPIFKYSDTKEEPELFL", "soluble on expression in E. coli": "not soluble"}
    ]}
  ]
}
